Laboratory results from the supplement of paper PMC10567573.

B1: C10orf62 (parent)
chain: MLWVQRKRRRKETSECPSDKDKSP
B2: HNF4A (parent)
chain: RFSRQCVVDKDKRNQCRYCRLKKC

Variants of: B1
Test: protein stability index of a GFP-peptide fusion (GPS, HEK-293T) (PSI 1-6); higher = more stable
Conditions: c terminus: a fixed tail appended
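Note: lentivirally expressed fusions sorted by FACS into six bins by GFP to DsRed ratio, PSI derived from sequencing read proportions per bin multiplied by bin number.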

Protein stability index of substitutions, site by site:
R9: Y 3.75, P 2.26, I 3.4, E 3.71, C 2.81, H 3.32, A 3.71, L 3.08, D 3.62, K 2.73
R10: P 4.27, S 3.21, D 4.11, Y 2.78, F 2.33, K 3.41, L 2.78, E 3.86, Q 3.12, A 3.85, C 2.51, M 3.13
P24: H 3.31, Q 3.54, V 2.95, Y 2.57, G 3.59, M 2.46, N 2.8, F 2.46, I 2.35, K 2.16
K22: N 3.47, G 2.97, M 3.06, I 2.61, E 2.83, C 2.32, S 3.18, T 3.48
P17: R 2.52, T 3.08, N 3.23, C 2.74, H 2.81, S 2.92, M 3.44, W 2.86, L 2.98
D21: Q 2.87, P 2.62, H 2.28, L 2.29, K 4.07, E 3.44, R 1.92, A 2.64
S14: V 3.14, H 2.71, E 3.2, W 2.94, F 3.12, D 3.12, R 2.55, I 2.74
V4: A 4.6, K 3.56, I 2.87, Y 2.71, E 4.56, G 3.89, H 3.86, M 2.52
S18: G 3.58, C 2.77, Q 3.42, T 2.75, E 2.88, Y 2.43, V 2.9, N 2.83, R 3.21, D 3.07
E15: K 2.74, D 3.26, L 2.84, T 2.95, F 3, W 2.15, V 3.29, I 1.92, M 2.24, S 2.96
W3: N 4.66, K 4.18, F 3.25, H 4.31, L 3.73, D 4.99, I 3.25, M 3.46, S 4.87, Y 2.77, C 4.07, Q 3.13
K20: G 3.29, M 3.38, V 3.27, L 3.01, H 2.97, R 2.81, I 3.7, D 4.06, P 3.19, Y 3.92
S23: D 3.49, H 2.77, P 2.88, C 3.15, Q 3.42, V 3.58, Y 2.69, F 2.5, R 2.88
K11: E 3.06, C 2.46, W 2.45, R 3.39, G 2.9, P 3.34, Q 3.44, N 3.11, D 3.46
D19: Q 2.65, C 2.76, S 2.37, N 2.92, Y 2.99, I 2.84, H 2.77, A 2.77, W 1.65, P 2.61, E 2.46, F 2.57
E12: I 2.39, D 2.39, M 2.67, Q 3.37, K 3.44, V 2.93, N 2.67
M1: P 2.83, K 3.53, F 2.98, I 1.24, T 3.65, C 3.06, L 2.3, G 4, R 2.59, V 3.29, Y 3.4, W 2.83, A 2.93
T13: K 3.55, L 3.4, W 2.75, S 2.25, D 2.3, H 3.39, G 2.15, C 2.42, V 4.26, I 2.52
R6: F 3.11, M 3.49, C 2.27, G 3.54, E 4.01, Q 3.27, D 3.9, I 3.21, T 3.13, V 2.95
C16: F 2.29, K 3.41, I 2.95, G 2.43, V 2.81, S 4.01, L 2.53, Q 3.75, M 3.84, N 3.16, Y 3.1
Q5: C 2.61, M 2.62, W 1.93, P 3.11, S 3.85, F 2.67, K 4.1, D 4.23
K7: I 1.95, L 1.73, C 2.31, M 3.06, D 3.97, W 2.49, G 3.23, A 3.08, T 3.15, Y 1.57, S 3.85, V 2.69, F 2.73, P 3.97
R8: D 3.52, C 3.34, K 3.15, H 3.89, N 3.78, M 3.74, Y 3.19, S 3.91, A 3.9, T 2.95, L 2.51
L2: P 4.59, T 3.31, C 2.87, H 3.52, M 2.89, V 2.6, N 3.93

Variants of: B2
Test: as above
Conditions: c terminus: a fixed tail appended

Protein stability index: each site, then its substitutions
R4: C 3.38, S 2.44, K 2.58, P 1.54
K22: V 1.83, A 2.08
C6: Y 2.32, V 2.62, P 2.72, W 1.29
Q15: C 2.8, I 2.33, V 2.52, M 2.48
K10: Q 2.95, P 2.8, I 1.75, S 2.02, Y 2.82, D 2.49
R1: Y 2.19, H 3.54, W 2.21, I 2.65, S 2.18, A 2.4
F2: Q 3.63, Y 3.32, K 3.31
Q5: F 2.18, A 2.24, L 2.56, C 2.04
L21: M 3.61, R 4.08, C 3.73, S 3.36, Y 3.01, T 2.93
D11: N 2.4, T 2.32, E 2.19, F 2.63
D9: E 2.52, A 2.07
C24: M 3.33, W 1.81, S 2.5, L 2.39, Q 2.5
C19: W 2.46, R 3.37, M 3.08, I 2.03
R20: D 3, F 2.12, M 2.96
R17: E 3.78, W 2.42, P 2.9
R13: M 3.02, L 2.22, P 1.84, F 2.56
K23: C 2.54, L 1.34, E 2.04, N 1.77, Q 2.74
V8: I 2.9
S3: L 2.08, R 3.1, I 2.77, F 1.91, E 3.07, C 3.62, V 2.17, M 2.33
V7: T 2.73, M 2.41, C 2.62, Y 2.93, D 4.05, E 2.05
N14: V 2.6, C 3.46, Y 3.62, E 2.95, D 2.24
K12: M 1.97, Q 2.52
Y18: N 3.78, L 2.19, M 3.13, R 3.36
C16: H 3.9, A 2.56, R 4.33
